These results are taken from patent US20190077860A1 (EISAI R AND D MANAGEMENT, published 2019).

A word on the koff: it is the rate constant with which the complex falls apart. High values mean fast dissociation, low ones slow dissociation. A word on the kon: it is the second-order rate constant of association. A higher kon goes with fast association. By IC50 is commonly meant the point on the concentration scale where inhibition reaches its midpoint. The low end stands for inhibition by little substance, the high end for a need for much substance. By Kd is commonly meant the constant that tells how readily two partners part at equilibrium.

Where only a bound is given, the exact number is not on record here.

For experiment [1], the target named is T1, mouse EphA4 extracellular region-SEAP-His protein (mouse). The experiment can be described thus: SPR (Biacore T200), mouse EphA4 extracellular region-SEAP-His captured on an anti-His antibody CM5 chip, Fab as analyte at 6.2-500 nM, 1:1 fit. Here is the method:
(§1) Next, the binding affinity of antibody A-Fab and antibody A-F(ab′)₂ for mouse and human EphA4 was determined by surface plasmon resonance (SPR) using Biacore T200 (GE Healthcare). Antibody A obtained in Example 1 was used as a control for the comparison of each fragment. First, an anti-His tag antibody was immobilized on sensor chip CM5. The immobilization of the anti-His tag antibody on sensor chip CM5 was performed by the amine coupling method using N-hydroxysuccinimide (NHS) and N-ethyl-N′-(3-dimethylaminopropyl)carbodiimide hydrochloride (EDC). Ethanolamine was used in blocking (the sensor chip and the reagents for immobilization were all manufactured by GE Healthcare). The antibody was diluted with a buffer solution for immobilization (10 mM sodium acetate, pH 4.5) into 3 μg/mL and immobilized on the sensor chip according to the protocol attached to Biacore T200.
(§2) Mouse or human EphA4 extracellular region-SEAP-His protein was diluted with a running buffer solution HBS-EP (GE Healthcare, BR-1001-88), injected onto a flow cell for 120 seconds, and captured (amount of the protein captured: approximately 10 to 20 RU). Subsequently, antibody A (50, 16.7, 5.6, 1.9, 0.6, and 0 nM), antibody A-Fab (500, 166.7, 55.6, 18.5, 6.2, and 0 nM), or antibody A-F(ab′)₂ (50, 16.7, 5.6, 1.9, 0.6, and 0 nM) serially diluted using HBS-EP was added to the sensor chip for 120 seconds. […]
A general note: SPR reads the build-up and loss of mass on a sensor chip optically.

For experiment [2], the target named is T2, human EphA4 extracellular region-SEAP-His protein (human, UniProt P54764 20-547).
T2 construct: also called hEphA4-SEAP-His
The experiment can be described thus: SPR (Biacore T200), human EphA4 extracellular region-SEAP-His captured on an anti-His antibody CM5 chip, Fab as analyte at 6.2-500 nM, 1:1 fit. How it is done: as §1, §2

Experiment [3] has as its target T1, mouse EphA4 extracellular …. The experiment can be described thus: competition ELISA, competitor biotinylated mouse Ephrin B2-Fc. How it is done:
Antibody A-Fab and antibody A-F(ab′)₂ obtained in Example 5 were evaluated for their inhibitory activity against the binding between EphA4 and its ligand according to the following steps. Each well of a 96-well plate (Nunc) was coated with an anti-alkaline phosphatase antibody (Thermo Fisher Scientific). After incubation overnight at 4° C., each well was blocked with 1% BlockAce (DS Pharma Biomedical) at room temperature for 1 hour. After washing with 0.05% Tween 20/PBS (Thermo Fisher Scientific) three times, the mouse EphA4 extracellular region-SEAP-His protein obtained by the method of Example 1 was added (final concentration: 10 nM) to each well and incubated at room temperature for 1 hour. After washing three times, a ligand and serially diluted antibody A (0, 0.003, 0.01, 0.03, 0.1, 0.3, 1, 3, 10, 30, 100, 300, 1000, and 3000 nM), antibody A-Fab (0, 0.003, 0.01, 0.03, 0.1, 0.3, 1, 3, 10, 30, 100, 300, 1000, and 3000 nM), antibody A-F(ab′)₂ (0, 0.003, 0.01, 0.03, 0.1, 0.3, 1, 3, 10, 30, 100, 300, 1000, and 3000 nM), or the EphA4 inhibitor KYL peptide ([…], 0, 0.0003, 0.001, 0.003, 0.01, 0.03, 0.1, 0.3, 1, 3, 10, 30, 100, 300, 1000, and 3000 μM, its synthesis was outsourced to Toray Research Center) were added to each well. The ligand used was biotinylated mouse Ephrin B2-Fc chimera (R&D Systems, final concentration: 2.5 nM). After incubation at room temperature for 1 hour and subsequent washing three times, horseradish peroxidase-labeled streptavidin (GE Healthcare) was added thereto and incubated at room temperature for 1 hour. After washing three times, a TMBZ (3,3′,5,5′-tetramethylbenzidine, Sigma-Aldrich) solution was added to each well and incubated at room temperature for 2 minutes. An equal amount of a reaction stopping solution (1N H₂SO₄, Wako Pure Chemical Industries) was added to each well. The absorbance at 450 nm was read using a microplate reader (Molecular Devices or PerkinElmer).
Antibody A and antibody A-F(ab′)₂ had 1000 or more times the activity of the KYL peptide, and antibody A-Fab also had 10 or more times the activity of KYL peptide.
On the technique in general: ELISA stands for enzyme-linked immunosorbent assay.

The target is the same in experiment [4]. Nature of the experiment: SPR (Biacore T200), EphA4-SEAP-His captured by anti-His antibody; Fab (monovalent), not F(ab')2. Here is the method: as §1, §2
Experiment [5] has as its target T2, human EphA4 extracellular …. Described as above. How it is done:
as §1, §2

The target is the same in experiment [6]. The experiment can be described thus: competition ELISA, competitor human Ephrin B3-Fc. How it is done: (§3) Antibody A obtained in Example 1 was evaluated for its inhibitory activity against the binding between human EphA4 and its human ligand according to the following steps. Each well of a 96-well plate (Nunc) was coated with an anti-alkaline phosphatase antibody (Thermo Fisher Scientific). After incubation overnight at 4° C., each well was blocked with 1% BlockAce (DS Pharma Biomedical) at room temperature for 1 hour. After washing with 0.05% Tween 20/PBS (Thermo Fisher Scientific) three times, the human EphA4 extracellular region-SEAP-His protein obtained by the method of Example 1 was added (final concentration: 10 nM) to each well and incubated at room temperature for 1 hour. After washing three times, ligands and serially diluted antibody A (0, 0.003, 0.01, 0.03, 0.1, 0.3, 1, 3, 10, 30, 100, 300, 1000, and 3000 nM) or an EphA4 inhibitor KYL peptide ([…], 0, 0.003, 0.01, 0.03, 0.1, 0.3, 1, 3, 10, 30, 100, 300, 1000, and 3000 μM, its synthesis was outsourced to Toray Research Center) were added to each well. The ligands used were biotinylated human Ephrin A5-Fc chimera (R&D Systems, final concentration: 0.7 nM) and biotinylated human Ephrin B3-Fc chimera (R&D Systems, final concentration: 2.3 nM). […] The absorbance at 450 nm was read using a microplate reader (Molecular Devices or PerkinElmer). […]

Experiment [7] shares this target. Nature of the experiment: competition ELISA: human EphA4 extracellular region-SEAP-His captured on the plate, blocked ligand biotinylated human Ephrin B3-Fc chimera (2.3 nM). How it is done: as §3
The target in experiment [8] is rat EphA4 in rat hippocampal neurons (rat, UniProt D3ZZK3 20-986). Nature of the experiment: cell-based or functional assay.
For experiment [9], the target named is T2, human EphA4 extracellular …. The experiment can be described thus: competition ELISA: human EphA4 extracellular region-SEAP-His captured on the plate, blocked ligand biotinylated human Ephrin A5-Fc chimera (0.7 nM). How it is done:
as §3

The target of experiment [10] is T1, mouse EphA4 extracellular …. Nature of the experiment: competition ELISA: mouse EphA4 extracellular region-SEAP-His captured on the plate, blocked ligand mouse Ephrin B2-Fc chimera (0.6 nM). Here is the method: (§4) Antibody A obtained in Example 1 was evaluated for its inhibitory activity against the binding between mouse EphA4 and its mouse ligand according to the following steps. Each well of a 96-well plate (Nunc) was coated with an anti-alkaline phosphatase antibody (Thermo Fisher Scientific). After incubation overnight at 4° C., each well was blocked with 1% BlockAce (DS Pharma Biomedical) at room temperature for 1 hour. After washing with 0.05% Tween 20/PBS (Thermo Fisher Scientific) three times, the mouse EphA4 extracellular region-SEAP-His protein obtained by the method of Example 1 was added (final concentration: 10 nM) to each well and incubated at room temperature for 1 hour. After washing three times, ligands and serially diluted antibody A (0, 0.001, 0.003, 0.01, 0.03, 0.1, 0.3, 1,3, 10, 30, 100, 300, and 1000 nM) or a known EphA4 inhibitor KYL peptide ([…], 0, 0.003, 0.01, 0.03, 0.1, 0.3, 1, 3, 10, 30, and 100 μM, its synthesis was outsourced to Hokkaido System Science) or compound 1 (0, 0.03, 0.1, 0.3, 1,3, 10, 30, 100, 300, and 1000 μM, Formula 1, Matrix Scientific) were added to each well. The ligands used were mouse Ephrin A1-Fc chimera (R&D Systems, final concentration: 20 nM) and mouse Ephrin B2-Fc chimera (R&D Systems, final concentration: 0.6 nM). […] The absorbance at 450 nm was read using a microplate reader (Molecular Devices).

Experiment [11] deals with T2, human EphA4 extracellular …. The experiment can be described thus: competition ELISA, competitor human Ephrin A5-Fc. Here is the method:
as §3

Experiment [12] deals with T1, mouse EphA4 extracellular …. Nature of the experiment: competition ELISA: mouse EphA4 extracellular region-SEAP-His captured on the plate, blocked ligand mouse Ephrin A1-Fc chimera (20 nM). How it is done: as §4
Experiment [13] shares this target. The experiment can be described thus: competition ELISA, competitor mouse Ephrin B2-Fc. Here is the method: as §4

T2 sequence (P54764 20-547): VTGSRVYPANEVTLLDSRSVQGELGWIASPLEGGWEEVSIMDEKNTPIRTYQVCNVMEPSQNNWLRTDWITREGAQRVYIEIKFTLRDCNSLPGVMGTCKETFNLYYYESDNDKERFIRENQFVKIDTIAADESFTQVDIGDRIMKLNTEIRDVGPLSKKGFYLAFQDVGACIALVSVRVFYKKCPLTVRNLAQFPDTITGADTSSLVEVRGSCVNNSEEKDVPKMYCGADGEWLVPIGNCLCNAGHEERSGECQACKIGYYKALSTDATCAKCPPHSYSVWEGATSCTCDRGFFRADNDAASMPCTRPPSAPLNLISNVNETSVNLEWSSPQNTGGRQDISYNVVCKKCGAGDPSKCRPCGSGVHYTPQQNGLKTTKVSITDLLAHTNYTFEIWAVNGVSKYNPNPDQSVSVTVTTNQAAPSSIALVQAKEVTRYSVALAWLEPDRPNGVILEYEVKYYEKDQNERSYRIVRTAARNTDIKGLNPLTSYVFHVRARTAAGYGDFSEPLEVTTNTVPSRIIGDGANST
T1 sequence (chain, as listed by the source limits assumed): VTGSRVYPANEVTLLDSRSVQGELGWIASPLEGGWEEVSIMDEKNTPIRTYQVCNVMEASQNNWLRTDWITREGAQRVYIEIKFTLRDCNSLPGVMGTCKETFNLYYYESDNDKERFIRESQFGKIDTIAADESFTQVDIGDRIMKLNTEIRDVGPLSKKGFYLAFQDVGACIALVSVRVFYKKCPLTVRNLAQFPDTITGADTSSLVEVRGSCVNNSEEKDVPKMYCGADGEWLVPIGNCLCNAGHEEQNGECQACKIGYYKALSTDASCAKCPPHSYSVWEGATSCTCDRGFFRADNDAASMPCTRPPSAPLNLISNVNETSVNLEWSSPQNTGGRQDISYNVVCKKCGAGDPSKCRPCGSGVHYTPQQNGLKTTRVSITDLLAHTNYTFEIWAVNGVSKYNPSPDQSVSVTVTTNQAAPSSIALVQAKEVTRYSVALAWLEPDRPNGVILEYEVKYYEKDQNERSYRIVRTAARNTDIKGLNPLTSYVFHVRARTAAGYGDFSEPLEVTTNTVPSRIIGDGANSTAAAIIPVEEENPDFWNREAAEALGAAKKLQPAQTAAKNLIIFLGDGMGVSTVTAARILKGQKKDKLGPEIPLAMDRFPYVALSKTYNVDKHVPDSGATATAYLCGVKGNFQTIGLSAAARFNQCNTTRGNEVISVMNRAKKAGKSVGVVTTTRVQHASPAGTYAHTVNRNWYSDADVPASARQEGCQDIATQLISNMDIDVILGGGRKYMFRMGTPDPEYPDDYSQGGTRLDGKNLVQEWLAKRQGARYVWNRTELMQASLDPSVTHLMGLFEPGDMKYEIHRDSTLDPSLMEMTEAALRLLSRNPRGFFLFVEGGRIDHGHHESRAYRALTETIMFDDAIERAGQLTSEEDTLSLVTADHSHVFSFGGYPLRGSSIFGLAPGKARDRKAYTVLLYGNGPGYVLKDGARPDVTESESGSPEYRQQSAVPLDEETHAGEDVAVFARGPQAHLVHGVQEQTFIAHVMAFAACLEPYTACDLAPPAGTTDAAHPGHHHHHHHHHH

B1: antibody A-Fab (Fab, V domains shown, not shown: a dimerising Fc or GST)
VH: QIQLVQSGPELKKPGETVKISCKASGYTFTDYSMHWVKQAPGKGLKWMGWINTETGEPTYADDFKGRFAFSLETSASTAYLQINNLKNEDTATYFCARIPLYYYGSRYWYFDVWGAGTTVTVSS
VL: DIQMTQSPASLSVSVGETVTITCRASENIYRNLAWYQQKQGKSPQLLVYAATNLADGVPSRFSGSGSGTQYSLKINSLQSEDFGSYYCQHFWGTPWTFGGGTKLEIKR
notes: made by papain digestion of antibody A; also called Fab fragment of antibody A
Regarding B1, in experiment [1], the koff was found to be 0.042 s⁻¹ and the kon amounted to 931000 M⁻¹ s⁻¹. In experiment [2], this molecule registered a koff of 0.0373 s⁻¹ and a kon of 921000 M⁻¹ s⁻¹. For the same molecule, in experiment [3], the IC50 was 438 nM and the “fold activity against KYL peptide” value was at least 10 fold. Moreover, the Kd in [4] came out at 45.1 nM. This molecule yielded a Kd in experiment [5] of 40.4 nM.
With KYLPYWPVLSSL (synthetic peptide) [KYL peptide], the IC50 in experiment [6] is around 1600 nM; in experiment [7], 1570 nM; in experiment [3], 5290 nM; in experiment [9] it was 6120 nM; in [10], 1310 nM; in [11], around 6100 nM. Moreover, the figures for the IC50 in experiment [12] and in experiment [13] were 1290 nM and around 1300 nM, respectively. The “IC50 of suppression of EphA4 autophosphorylation induced by mouse EphrinA1 in the hippocampal neurons” value in experiment [8] turned out to be 9910 nM.
